Assay results taken from patent US20150152192A1 (SAMSUNG ELECTRONICS, published 2015).
Changes are numbered by the printed parent chain.

B1: SAIT-ANG-2-AB-4-F11 (IgG form) (antibody, V domains shown)
VH: EVQLLESGGGLVQTGGSLRLSCAASGFTFSDYAMSWVRQAPGKGLEWVSSIYPDDGNTYYADSVKGRFTISRDNSKNTLYLQMNSLRAEDTAVYYCAKHPVRLNLHPMYYYYGMDVWGQGTLVTVSS
VL: QSVLTQPPSASGTPGQRVTISCTGSSSNIGNNAVSWYQQLPGTAPKLLIYSDSQRPSGVPDRFSGSKSGTSASLAISGLRSEDEADYYCATWDYSLSAYVFGGGTKLTVLG
notes: Intact human antibody with human IgG1 constant region
B2: SAIT-ANG-2-AB-4-F5 (IgG form) (antibody, V domains shown)
VH: EVQLLESGGGLVQPGGSLRLSCAASGFTFSDYDMSWVRQAPGKGLEWVSSISHGDSNKYYADSVKGRFTISRDNSKNTLYLQMNSLRAEDTAVYYCAKSSGIQESPPTYYYYGMDVWGQGTLVTVSS
VL: B1 VL with T23S, N31S, S35N, S51A, Q54N, A90G, T91S, A98G
notes: as for B1
B3: SAIT-ANG-2-AB-8-A5 (IgG form) (antibody, V domains shown)
VH: EVQLLESGGGLVQPGGSLRLSCAASGFTFSDYYMSWVRQAPGKGLEWVSGIYPSGGSTYYADSVKGRFTISRDNSKNTLYLQMNSLRAEDTAVYYCARDPSTLTYAGFDYWGQGTLVTVSS
VL: B1 VL with T23S, A33Y, S35T, S51A, Q54H, A98G
notes: as for B1
B4: SAIT-ANG-2-AB-3-D3 (IgG form) (antibody, V domains shown)
VH: EVQLLESGGGLVQPGGSLRLSCAASGFTFSDYDMSWVRQAPGKGLEWVSGISSDDGNTYYADSVKGRFTISRDNSKNTLYLQMNSLRAEDTAVYYCARPTIDKYTLRGYYSYGMDVWGQGTLVTVSS
VL: B1 VL with N31S, A33Y, S53N, Q54K, A90G, Y94D, S97N, A98G
notes: as for B1
B5: SAIT-ANG-2-AB-4-C11 (IgG form) (antibody, V domains shown)
VH: EVQLLESGGGLVQPGGSLRLSCAASGFTFSDYAMSWVRQAPGKGLEWVSSIYPDDGNTYYADSVKGRFTISRDNSKNTLYLQMNSLRAEDTAVYYCARHTSHHTSIDGYYYYGMDGWGQGTLVTVSS
VL: B1 VL with A33D, Q54K, A90G, T91S, A98G
notes: as for B1
B6: SAIT-ANG-2-AB-7-C9 (IgG form) (antibody, V domains shown)
VH: EVQLLESGGGLVQPGGSLRLSCAASGFTFSNYAMSWVRQAPGKGLEWVSAISSGGGNIYYADSVKGRFTISRDNSKNTLYLQMNSLRAEDTAVYYCAKSGIQPSPPSMSSAYAMDVWGQGTLVTVSS
VL: B1 VL with T23S, A33D, S35Y, S51A, D52N, Q54H, A90G, A98G
notes: as for B1
B7: SAIT-ANG-2-AB-2-E6 (IgG form) (antibody, V domains shown)
VH: EVQLLESGGGLVQTGGSLRLSCAASGFTFSDYAMSWVRQAPGKGLEWVSAIYPDSGNKYYADSVKGRFTISRDNSKNTLYLQMNSLRAEDTAVYYCARHSSDPKVKSGYYDDGMDVWGQGTLVAVSS
VL: B1 VL with T23S, S35N, S51A, Q54N, A90G, T91S, A98G
notes: Intact human antibody: VH cloned into a vector with the constant region and Fc region of human IgG1, VL into pFUSE2-CLIg-hl2 (light chain constant region)
B8: FLAG-Tagged hAng2 (ligand)
chain: DYKDDDDKYNNFRKSMDSIGKKQYQVQHGSCSYTFLLPEMDNCRSSSSPYVSNAVQRDAPLEYDDSVQRLQVLENIMENNTQWLMKLENYIQDNMKKEMVEIQQNAVQNQTAVMIEIGTNLLNQTAEQTRKLTDVEAQVLNQTTRLELQLLEHSLSTNKLEKQILDQTSEINKLQDKNSFLEKKVLAMEDKHIIQLQSIKEEKDQLQVLVSKQNSIIEELEKKIVTATVNNSVLQKQQHDLMETVNNLLTMMSTSNSAKDPTVAKEEQISFRDCAEVFKSGHTTNGIYTLTFPNSTEEIKAYCDMEAGGGGWTIIQRREDGSVDFQRTWKEYKVGFGNPSGEYWLGNEFVSQLTNQQRYVLKIHLKDWEGNEAYSLYEHFYLSSEELNYRIHLKGLTGTAGKISSISQPGNDFSTKDGDNDKCICKCSQMLTGGWWFDACGPSNLNGMYYPQRQNTNKFNGIKWYYWKGSGYSLKATTMMIRPADF
notes: also called FLAG-Ang2; non-mutated Ang2

Assays:
FLAG-Tagged hAng2 = target: B8; assay: competitive ELISA: hTie2-Fc coated, 400 ng/ml FLAG-hAng2 plus IgG, anti-FLAG-HRP
Procedure: To verify molecular interaction of the bound assemblies, a competitive ELISA was performed. A 96-well MaxiSorp™ flat-bottom plate (Nunc) was coated with […] of hTie2-Fc (R&D Systems), which is a protein with the Fc of human IgG1 bound thereto. After that, the plate was washed five times with 0.05% (v/v) Tween-20-containing PBS (Phosphate Buffer Saline) and then blocked with 1% (v/v) BSA (Bovine serum albumin; Sigma)-containing PBS at a room temperature for 2 hours.
(§1) Thereafter, the plate was washed five times with 0.05% Tween-20-containing PBS and then, an HRP-conjugated anti-FLAG antibody (SIGMA) diluted in 1% (v/v) BSA-containing PBS at 1:5,000 ratio (v/v) was added in the amount of 100 μl to each well to react at a room temperature for 1 hour, followed by washing five times with 0.1% (v/v) Tween-20-containing PBS. Finally, 100 μl of TMB substrate (cell signal) was added to each well of the plate to induce color development at a room temperature for 3 min. Then, the reaction was ceased by the addition of 50 μl of 5N H₂SO₄ solution and OD450 values were measured on a plate reader (Molecular Devices).

[1] = target: T1, mouse Ang2 (Accession # NP-031452) (R&D Systems) (mouse, UniProt O35608 19-496, limits assumed); assay: ELISA, antigen coated, IgG, anti-hFc-HRP; 50% binding concentration (Kd)
T1 construct: Bought protein; also called mAng2
T1 sequence (looked up): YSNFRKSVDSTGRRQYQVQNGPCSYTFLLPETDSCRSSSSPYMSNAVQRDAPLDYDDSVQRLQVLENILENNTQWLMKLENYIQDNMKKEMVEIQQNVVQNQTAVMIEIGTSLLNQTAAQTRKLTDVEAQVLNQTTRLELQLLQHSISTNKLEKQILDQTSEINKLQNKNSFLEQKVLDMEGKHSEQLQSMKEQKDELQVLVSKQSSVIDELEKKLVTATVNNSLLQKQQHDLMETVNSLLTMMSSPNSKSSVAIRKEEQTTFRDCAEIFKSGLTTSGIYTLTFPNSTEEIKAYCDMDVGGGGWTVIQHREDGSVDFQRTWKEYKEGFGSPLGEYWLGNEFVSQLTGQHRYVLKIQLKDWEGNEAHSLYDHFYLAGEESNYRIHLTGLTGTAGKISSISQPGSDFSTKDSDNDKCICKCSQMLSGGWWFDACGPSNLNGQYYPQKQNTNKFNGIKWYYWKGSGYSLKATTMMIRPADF
Procedure: To measure binding of the antibodies prepared above with each antigen, ELISA was performed. A 96-well MaxiSorp™ flat-bottom plate (Nunc) was coated with 5˜20 μg/ml of human Ang2 and mouse Ang2 (Accession # NP_{—}031452) (both, R&D Systems). After that, the plate was washed five times with 0.05% (v/v) Tween-20-containing PBS and then blocked with 1% (v/v) BSA-containing PBS at a room temperature for 2 hours. The anti-Ang2 antibodies in their IgG forms prepared above (0.001, 0.01, 0.1, 1, 10, 100, and 1000 nM) were added to each well of the plate which was then allowed to react at a room temperature for 2 hours.
as §1, with “HRP-conjugated anti-human FC (Anti-hFc-HRP conjugated)” for “HRP-conjugated anti-FLAG”, “of 50” for “of 100”, “3 min and then,” for “3 min. Then,”

[2] = target: T2, recombinant hAng2 (C-His, R&D Systems) (human, UniProt O15123 19-496); assay: SPR, BIAcore T100, hAng2-His captured on anti-His CM5 chip, antibody flowed
T2 construct: Bought protein captured on an anti-His chip; not shown: C-terminal His tag
T2 sequence: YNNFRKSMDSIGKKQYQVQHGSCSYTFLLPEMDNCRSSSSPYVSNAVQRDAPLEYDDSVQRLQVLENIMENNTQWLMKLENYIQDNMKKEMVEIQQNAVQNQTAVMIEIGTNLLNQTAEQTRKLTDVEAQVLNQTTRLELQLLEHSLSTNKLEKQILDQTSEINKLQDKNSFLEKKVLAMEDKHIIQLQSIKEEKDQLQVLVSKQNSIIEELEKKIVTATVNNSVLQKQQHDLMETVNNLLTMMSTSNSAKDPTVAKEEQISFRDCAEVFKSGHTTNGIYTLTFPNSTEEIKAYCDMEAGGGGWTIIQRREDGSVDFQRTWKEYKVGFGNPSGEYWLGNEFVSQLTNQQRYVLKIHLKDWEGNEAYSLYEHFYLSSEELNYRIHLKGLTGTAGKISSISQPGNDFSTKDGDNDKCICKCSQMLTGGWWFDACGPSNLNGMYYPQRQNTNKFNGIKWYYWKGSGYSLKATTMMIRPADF
Procedure: To measure accurate affinities toward an anti-Ang2 antigen, antigen affinities were measured by a SPR method using a BIAcore T100 (GE Healthcare). The SPR method uses refractive index change of light which passes a sensor chip according to the state of materials coated onto the sensor chip, and if an antigen or an antibody is flowed onto a chip coated with the antigen or antibody, it causes changes in refractive index due to their binding and Kd values are thus calculated from the measured values.
First, anti-His antibody was immobilized on a CM5 sensor chip (GE healthcare) up to 8,000 RU levels using a pH 5.0 acetate solution and an amine coupling kit (GE Healthcare). 6 μg/ml of a recombinant hAng2 (C-His, R&D Systems) protein was flowed onto the chip to be captured at 100 to 200 RU levels.

[3] = target: T3, integrin alpha5beta1 (α5β1; R&D systems) (human, UniProt P08648 42-995; P05556 21-728, limits assumed); assay: ELISA: integrin alpha5beta1 coated at 5 ug/ml, FLAG-Ang2 at 10 ug/ml, detection with anti-FLAG-HRP, A450
T3 construct: Bought heterodimer
Procedure: After that, an anti-FLAG antibody (Sigma) conjugated with horseradish peroxidase (HRP) was added to react, and the plate was washed again five times with PBS-t. Bindings between Ang2 and the above the integrin were identified indirectly by measuring the amounts of the anti-FLAG antibody remaining in the ELISA plate via color development using TMB (3,3,5,5-tetramethylbenzidine) as a substrate of HRP. As positive controls, control antibody 1 (Regeneron Ang2 antibody) and control antibody 2 (Astra Zeneca Ang2 antibody) were used. Also, to show the background, a group coated with BSA instead of integrin was used.

T3 sequence (P08648 42-995 limits assumed, chain 1 of 2): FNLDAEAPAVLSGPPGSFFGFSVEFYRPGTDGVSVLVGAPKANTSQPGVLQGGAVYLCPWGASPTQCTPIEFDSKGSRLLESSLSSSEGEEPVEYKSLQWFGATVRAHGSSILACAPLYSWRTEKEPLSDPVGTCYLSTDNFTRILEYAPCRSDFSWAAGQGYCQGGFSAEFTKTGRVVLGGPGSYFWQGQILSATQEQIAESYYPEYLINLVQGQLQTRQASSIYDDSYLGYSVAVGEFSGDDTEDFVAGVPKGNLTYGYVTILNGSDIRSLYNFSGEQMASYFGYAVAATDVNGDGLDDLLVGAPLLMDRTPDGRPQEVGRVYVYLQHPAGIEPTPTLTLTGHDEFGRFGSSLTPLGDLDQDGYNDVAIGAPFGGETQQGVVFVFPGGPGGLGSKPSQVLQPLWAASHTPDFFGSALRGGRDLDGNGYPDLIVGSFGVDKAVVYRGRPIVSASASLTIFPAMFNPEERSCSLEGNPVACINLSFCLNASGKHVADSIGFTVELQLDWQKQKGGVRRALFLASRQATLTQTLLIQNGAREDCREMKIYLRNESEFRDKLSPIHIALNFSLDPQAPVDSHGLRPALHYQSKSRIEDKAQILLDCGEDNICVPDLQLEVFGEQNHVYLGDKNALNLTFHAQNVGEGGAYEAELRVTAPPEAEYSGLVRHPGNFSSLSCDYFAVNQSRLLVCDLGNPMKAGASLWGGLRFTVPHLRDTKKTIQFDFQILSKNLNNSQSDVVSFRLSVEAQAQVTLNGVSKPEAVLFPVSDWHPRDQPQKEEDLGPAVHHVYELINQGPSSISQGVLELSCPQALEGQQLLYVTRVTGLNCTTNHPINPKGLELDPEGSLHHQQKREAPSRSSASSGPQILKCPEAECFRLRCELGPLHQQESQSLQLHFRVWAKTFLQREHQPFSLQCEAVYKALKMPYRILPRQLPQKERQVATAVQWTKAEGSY
T3 sequence (P05556 21-728 limits assumed, chain 2 of 2): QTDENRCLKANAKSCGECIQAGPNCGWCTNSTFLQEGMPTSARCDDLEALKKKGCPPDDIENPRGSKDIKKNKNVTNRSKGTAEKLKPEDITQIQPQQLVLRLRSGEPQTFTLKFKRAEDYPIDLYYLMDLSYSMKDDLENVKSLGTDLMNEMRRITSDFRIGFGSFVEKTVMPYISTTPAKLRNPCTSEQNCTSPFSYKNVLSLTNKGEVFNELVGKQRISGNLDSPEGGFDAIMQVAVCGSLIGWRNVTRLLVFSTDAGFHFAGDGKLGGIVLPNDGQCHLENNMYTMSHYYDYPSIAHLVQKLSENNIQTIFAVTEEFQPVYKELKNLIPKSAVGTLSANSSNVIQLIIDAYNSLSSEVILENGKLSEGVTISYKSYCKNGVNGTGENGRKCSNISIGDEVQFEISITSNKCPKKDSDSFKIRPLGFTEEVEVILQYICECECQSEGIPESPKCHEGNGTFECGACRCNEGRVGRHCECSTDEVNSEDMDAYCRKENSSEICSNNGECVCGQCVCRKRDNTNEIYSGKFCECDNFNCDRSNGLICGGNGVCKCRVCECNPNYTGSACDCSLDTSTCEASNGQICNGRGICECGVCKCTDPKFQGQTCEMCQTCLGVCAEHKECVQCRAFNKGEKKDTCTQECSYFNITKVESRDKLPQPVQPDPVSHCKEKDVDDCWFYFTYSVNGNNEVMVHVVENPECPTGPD

B1
IC50 (FLAG-Tagged hAng2): 0.37 nM
Kd [1]: 0.36 nM
Kd [2]: 0.44 nM
koff [2]: 0.000777 s⁻¹
kon [2]: 1.76e+06 M⁻¹ s⁻¹

B2
IC50 (FLAG-Tagged hAng2): 1.52 nM
Kd [2]: 0.589 nM
koff [2]: 0.00112 s⁻¹
kon [2]: 1.9e+06 M⁻¹ s⁻¹

B3
IC50 (FLAG-Tagged hAng2): 0.341 nM
Kd [1]: 0.19 nM
Kd [2]: 0.074 nM
koff [2]: 0.000327 s⁻¹
kon [2]: 4.4e+06 M⁻¹ s⁻¹

B4
IC50 (FLAG-Tagged hAng2): 0.44 nM
Kd [1]: 0.3 nM
Kd [2]: 0.47 nM
koff [2]: 0.000546 s⁻¹
kon [2]: 1.16e+06 M⁻¹ s⁻¹

B5
IC50 (FLAG-Tagged hAng2): 0.421 nM
Kd [1]: 0.28 nM
Kd [2]: 0.588 nM
koff [2]: 0.00049 s⁻¹
kon [2]: 833000 M⁻¹ s⁻¹

B6
IC50 (FLAG-Tagged hAng2): 0.392 nM
Kd [2]: 0.205 nM
koff [2]: 0.000366 s⁻¹
kon [2]: 1.78e+06 M⁻¹ s⁻¹

B7
IC50 (FLAG-Tagged hAng2): 0.605 nM
Kd [1]: 0.35 nM
Kd [2]: 0.65 nM
koff [2]: 0.000795 s⁻¹
kon [2]: 1.22e+06 M⁻¹ s⁻¹

B8
binding result [3]: binds
